Results: publication PMC10931833, “Simultaneous Purification of Human Interferon Alpha-2b and Serum Albumin Using Bioprivileged Fluorinated Ionic Liquid-Based Aqueous Biphasic Systems” (International Journal of Molecular Sciences, 2024)
Read-outs that look alike come from different tables or passages of the source.

Tests used:
FITC-BSA = molecular target: T1, FITC-BSA (Bos taurus, UniProt P02769); assay: MST binding to FITC-BSA; parameters: species or system bovine; conditions: 0.41 μM BSA, read-out: Kd
T1 construct: purchased Millipore Sigma-Aldrich
Description: Herein, a commercial FITC labeling kit (Section 3) was used to fluorescently tag both IFN- α 2b and BSA. Typically, in the labeling process, one amine per protein is labeled, statistically distributing the position of the dye. […] The MST assay was performed as detailed in Section 3. The solutions were prepared with a concentration of IFN- α 2b and BSA fixed at 0.41 μ M in water. For IFN- α 2b a concentration of 2.7 μ M was also prepared to compare it with previous results on MST-binding between FILs and IFN- α 2b fluorescently labeled with a different tag. In each run of MST, a maximum concentration of a ligand is selected and consecutively diluted in sixteen capillaries. […] The experimental conditions of the MST assay only allow the study of the aggregation phenomenon individually for the first CAC.
Microscale thermophoresis (MST) measurements of the dye-labeled protein were used to conduct binding investigations. […] MST tests were conducted in a monolith NT.115 (blue/red) in accordance with the NanoTemper Technologies methodology. Medium MST power and 20% LED power (nano-blue) were set as the instrument’s default settings. For every MST measurement, a PBS buffer was used. The concentration of FITC-BSA was fixed at 0.4 μ M and FITC-IFN- α 2b was tested under two different concentrations (of 0.4 and 2.7 μ M). The ligand was used to create a set of 16 1:1 dilutions, with the starting ligand concentrations ranging from 10 to 400 mM. The typical parameters for MST traces were used for recording: […], 30 s MST power on, and 5 s MST power off. The data from three independently conducted pipetted experiments were examined using NanoTemper Technologies’ MO.Affinity Analysis software, version 2.3.

BSA [1] = molecular target: T2, BSA (Bos taurus, UniProt P02769); assay: CD thermal unfolding (Tm) of BSA; type: physicochemical, bovine
T2 construct: purchased Millipore Sigma-Aldrich
Source text: The thermal stability assessed by far-UV CD is solely determined through the thermal decay of the alpha-helical structure.

BSA [2] = molecular target: T2, BSA; assay: DSC thermal unfolding of BSA in water and aqueous solutions of ABS phase-forming components; type: physicochemical, bovine; conditions: 1.0 mg/mL BSA in water
Description: Differential scanning calorimetry (DSC) measurements were performed with Nano DSC equipment, as detailed in Section 3, and used to determine the melting temperature (T m ) and enthalpy ( Δ H) of protein unfolding. DSC analyzes changes in the structure and stability of proteins as thermal transitions at the nanoscale. Using DSC to measure heat capacity as a function of the temperature of a well-studied protein such as BSA provides keen insights into folding and unfolding processes, as well as factors affecting stability. Due to the volume and concentration requirements of the DSC technique, and the constraints in available quantities of IFN- α 2b the DSC experiments on the ABS phase-forming components’ effect on the structural properties of proteins were attained only for BSA.
The T m of BSA, which corresponds to the thermal unfolding transition midpoint, was measured in the absence and presence of the ABS phase-forming components at increasing concentrations (see Figure 1 and Table 2).

BSA [3] = molecular target: T2, BSA; assay: Far-UV CD secondary structure of BSA (CONTIN-LL deconvolution); type: physicochemical, bovine; parameters: Regular Alpha Helix / Distorted Alpha Helix / Regular Beta Sheet / Distorted Beta Sheet / Turns / Unordered: unit not given here
Source text: Circular dichroism (CD) is widely used to study the secondary structures of proteins, peptides and nucleic acids, because it requires a low concentration sample, is a nondestructive method, allows studying a wide range of variables (temperature, pH, etc.), and provides information on the effect of added ligands on protein folding and interactions. Far-UV (190–260 nm) CD spectroscopy was used to assess the IFN- α 2b and BSA secondary structure since the spectra are characteristic of different structural elements.
Circular dichroism (CD) spectra were collected in a 10 mm quartz cuvette and a Chirascan spectropolarimeter (Applied Photophysics, UK) at room temperature. All CD spectra were recorded in the far-UV range of 190 to 260 nm at scan rates of 50 nm/min, with 4 accumulations, and a response time of 3 s; CD spectra were collected. For each CD experiment, two distinct duplicates were acquired and combined. BSA was fixed at 1 mg/mL, solvent concentrations ranging from 0.1 to 200 mM were used, and the spectra were translated to MRE after being expressed in terms of molar ellipticity. Spectral deconvolution was carried out with DichroWeb using the CONTIN-LL deconvolution algorithm with the SMP180 reference set.

[4] = 1.2-1.6 mg/mL BSA in [N1112(OH)][H2PO4]-rich phase of BP#8

T2 sequence (P02769 25-607): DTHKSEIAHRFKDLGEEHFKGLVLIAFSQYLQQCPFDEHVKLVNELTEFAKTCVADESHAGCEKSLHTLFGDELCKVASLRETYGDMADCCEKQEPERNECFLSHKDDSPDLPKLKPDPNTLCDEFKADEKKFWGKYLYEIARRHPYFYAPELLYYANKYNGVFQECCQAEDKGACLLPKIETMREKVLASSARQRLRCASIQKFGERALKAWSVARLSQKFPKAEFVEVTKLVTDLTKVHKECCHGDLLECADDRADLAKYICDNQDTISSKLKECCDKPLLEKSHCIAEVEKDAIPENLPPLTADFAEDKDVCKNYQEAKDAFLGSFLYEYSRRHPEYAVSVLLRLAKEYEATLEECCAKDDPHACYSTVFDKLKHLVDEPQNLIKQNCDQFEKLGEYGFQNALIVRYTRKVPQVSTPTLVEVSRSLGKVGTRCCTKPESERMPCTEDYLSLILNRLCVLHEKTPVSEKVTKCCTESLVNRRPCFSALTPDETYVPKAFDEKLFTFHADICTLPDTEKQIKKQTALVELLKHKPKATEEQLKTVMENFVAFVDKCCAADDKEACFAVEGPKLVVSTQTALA
T1 sequence (P02769 25-607): as above

O=S(=O)(O)C(F)(F)C(F)(F)C(F)(F)C(F)(F)F [[N1112(OH)][C4F9SO3], (2-hydroxyethyl)trimethylammonium perfluorobutane sulfonate]
Kd (FITC-BSA; max. conc. first capillary in 1st CAC range): 860 ± 190 µM
Kd (FITC-BSA; max. conc. first capillary in 2nd CAC range): 1490 ± 300 µM

Bovine serum albumin [BSA]
Tm, Ellipticity 192 nm (BSA [1]; 1.0 mg/mL BSA in water): 74.028 °C
Tm, Ellipticity 208 nm (BSA [1]; 1.0 mg/mL BSA in water): 74.616 °C
Tm, Ellipticity 222 nm (BSA [1]; 1.0 mg/mL BSA in water): 76.277 °C
Tm, Ellipticity 208 nm (BSA [1]; [4]): 76.122 °C
Tm, Ellipticity 222 nm (BSA [1]; [4]): 80.396 °C
ΔG (BSA [2]): 16.87 kcal/mol
ΔHcal (BSA [2]): 113.9 kcal/mol
ΔHvH (BSA [2]): 112.4 kcal/mol
ΔS (BSA [2]): 1.361 KJ/(mol.K)
Distorted Alpha Helix (BSA [3]; 1.0 mg/mL BSA in water, 25 °C): 0.206
Distorted Beta Sheet (BSA [3]; 1.0 mg/mL BSA in water, 25 °C): 0.025
Regular Alpha Helix (BSA [3]; 1.0 mg/mL BSA in water, 25 °C): 0.400
Regular Beta Sheet (BSA [3]; 1.0 mg/mL BSA in water, 25 °C): 0.000
Turns (BSA [3]; 1.0 mg/mL BSA in water, 25 °C): 0.136
Unordered (BSA [3]; 1.0 mg/mL BSA in water, 25 °C): 0.233
predicted α-helical content (BSA [3]; BSA in water, CD deconvolution): 0.61
